{"source": "patent US20150344570A1", "about": "(published 2015)", "binders": {"B1": {"name": "J142-z72/L180-k (antibody, human IgG4 S228P, kappa)", "heavy": "QVQLVQSGSELKKPGASVKVSCKASGYTFTDNNMDWVRQAPGQGLEWMGDINTRSGGSIYNEEFQDRVTMTIDKSTGTAYMELSSLRSEDTAVYYCARRRSYGYYHDEWGEGTLVTVSSASTKGPSVFPLAPCSRSTSESTAALGCLVKDYFPEPVTVSWNSGALTSGVHTFPAVLQSSGLYSLSSVVTVPSSSLGTKTYTCNVDHKPSNTKVDKRVESKYGPPCPPCPAPEFLGGPSVFLFPPKPKDTLMISRTPEVTCVVVDVSQEDPEVQFNWYVDGVEVHNAKTKPREEQFNSTYRVVSVLTVLHQDWLNGKEYKCKVSNKGLPSSIEKTISKAKGQPREPQVYTLPPSQEEMTKNQVSLTCLVKGFYPSDIAVEWESNGQPENNYKTTPPVLDSDGSFFLYSRLTVDKSRWQEGNVFSCSVMHEALHNRFTQKSLSLSP", "light": "DIQMTQSPSSLSASVGDRVTITCKASRNIERNLAWYQQKPGQAPELLIYSASRKESGVPDRFSGSRYGTDFTLTISSLQPEDLATYYCQQYYSPPLTFGGGTKVEIKRTVAAPSVFIFPPSDEQLKSGTASVVCLLNNFYPREAKVQWKVDNALQSGNSQESVTEQDSKDSTYSLSSTLTLSKADYEKHKVYACEVTHQGLSSPVTKSFNRGEC", "notes": "also called homomeric antibody against FX"}, "B2": {"name": "J300-z107/L210-k (antibody, human IgG4 S228P, kappa)", "heavy": "QVQLVQSGSELKKPGASVKVSCKASGYTFTDNNMDWVRQAPGQGLEWMGDINTRSGGSIYNEEFQDRVIMTVDKSTDTAYMELSSLRSEDTAVYHCARRKSYGYYLDEWGEGTLVTVSSASTKGPSVFPLAPCSRSTSESTAALGCLVKDYFPEPVTVSWNSGALTSGVHTFPAVLQSSGLYSLSSVVTVPSSSLGTQTYTCNVDHKPSNTKVDKRVESKYGPPCPPCPAPEFLGGPSVFLFPPKPKDTLMISRTPEVTCVVVDVSQEDPEVQFNWYVDGVEVHNAKTKPREEQYNSTYRVVSVLTVLHQDWLNGKEYKCKVSNKGLPSSIEKTISKAKGQPREPQVYTLPPSQEEMTKNQVSLTCLVKGFYPSDIAVEWESNGQPENNYKTTPPVLDSDGSFFLYSKLTVDKSRWQEGNVFSCSVMHEALHNRYTQESLSLSP", "light": "B1 light with L83I, Y92S", "notes": "Homomeric by-product in the culture medium of Q407-z106/J300-z107/L210-k; also called homomeric antibody against FX"}, "B3": {"name": "J142-z72/L180-k (antibody, human IgG4 S228P, kappa)", "heavy": "B1 heavy", "light": "B1 light", "notes": "also called homomeric antibody J142-z72; homomeric antibody against FX"}, "B4": {"name": "J142-z73/L180-k (antibody, human IgG4 S228P, kappa)", "heavy": "B1 heavy with K438E", "light": "B1 light", "notes": "also called homomeric antibody J142-z73"}, "B5": {"name": "J300-z107/L210-k (antibody, human IgG4 S228P, kappa)", "heavy": "B2 heavy", "light": "B1 light with L83I, Y92S", "notes": "also called homomeric antibody J300-z107"}}, "key": {"Protein A [1]": {"target": "T1, Protein A (UniProt P38507 37-327)", "T1 construct": "Commercial chromatography resin; also called rProtein A Sepharose Fast Flow (GE Healthcare)", "experiment": "Protein A column chromatography, stepwise pH elution; eluted fractions analysed by cation exchange chromatography (peak area %)"}, "Protein A [2]": {"target": "T1, Protein A", "experiment": "Protein A column chromatography, pH 3.6 elution; eluted fraction analysed by cation exchange chromatography (peak area %)", "protocol": "The quantity of CM to be loaded was adjusted in a way that the quantity of the loaded antibody is 20 mg/ml resine. Fractions eluted under each condition were collected and the components contained in each elution fraction were identified by cation exchange chromatography analysis. […] Samples purified by batchwise elution were used as controls.\nThe values represent the area of elution peak expressed in percentage."}, "Protein A [3]": {"target": "T2, Protein A (UniProt P38507 37-327)", "T2 construct": "bought recombinant resin; also called rProtein A Sepharose Fast Flow", "experiment": "Protein A affinity chromatography, stepwise pH elution", "source_text": "Samples purified by batchwise elution were used as controls."}, "Protein A [4]": {"target": "T2, Protein A", "experiment": "Protein A affinity chromatography, elution at pH 3.6 and pH 2.7"}, "Protein A [5]": {"target": "T2, Protein A", "experiment": "Protein A affinity chromatography, elution at pH 3.6"}}, "note": "Where a chain is given by its changes, count along the chain named.", "data": [{"binder": "B1", "values": [{"measurement": "binding result", "setting": "Protein A [1]", "result": "no binding"}]}, {"binder": "B2", "values": [{"measurement": "binding result", "setting": "Protein A [2]", "result": "no binding"}]}, {"binder": "B3", "values": [{"measurement": "binding result", "setting": "Protein A [3]", "result": "no binding"}]}, {"binder": "B4", "values": [{"measurement": "binding result", "setting": "Protein A [4]", "result": "no binding"}]}, {"binder": "B5", "values": [{"measurement": "binding result", "setting": "Protein A [5]", "result": "no binding"}]}]}
